From patent US20040176301A1 (CYCLACEL, published 2004)
Square brackets hold non-standard residues; d marks the D form. Ends that are not written are not given here. * marks the point of attachment. Biotin = O=C1N[C@H]2[C@H](CS[C@H]2CCCCC(=O)*)N1; Ahx = NCCCCCC(=O)O

What was measured:
[1] = biological target: Cyclin D1 (UniProt P24385 1-295, limits assumed); assay: pull-down, biotinylated peptide on streptavidin-agarose; SDS-PAGE, Western blot
Excerpt: (§1) The biotinylated peptide was pre-immobilised on streptavidin-agarose beads.

[2] = biological target: CDK2 (UniProt P24941 1-298); assay: pull-down with biotinylated peptide on streptavidin-agarose beads; SDS-PAGE, Western blot
Excerpt: as §1

[3] = biological target: T1, CDK4 (UniProt P11802 1-303); assay: as above
T1 construct: also called CDK4-6×His
Excerpt: as §1

[4] = biological target: CDK2/Cyclin E complex (UniProt P24941 1-298; P24864 1-410); assay: cell-based or functional assay
[5] = biological target: CDK4/Cyclin D1 complex (UniProt P11802 1-303; P24385 1-295); assay: cell-based or functional assay
[6] = biological target: T2, CDK1/Cyclin B complex (UniProt P06493 1-297; P14635 1-433); assay: cell-based or functional assay
[7] = biological target: T2, CDK1/Cyclin B complex; assay: pull-down with immobilised peptide
[8] = biological target: cyclin B (UniProt P14635 1-433); assay: pull-down with immobilised peptide
For % Inhibition, cyclin D1/CDK4 kinase in this document: test concentration or dose not given here.
For % Inhibition, cyclin E/CDK2 kinase in this document: test concentration or dose not given here.

T2 sequence (P06493 other isoform, or with tags, fused parts or gaps, chain 1 of 2): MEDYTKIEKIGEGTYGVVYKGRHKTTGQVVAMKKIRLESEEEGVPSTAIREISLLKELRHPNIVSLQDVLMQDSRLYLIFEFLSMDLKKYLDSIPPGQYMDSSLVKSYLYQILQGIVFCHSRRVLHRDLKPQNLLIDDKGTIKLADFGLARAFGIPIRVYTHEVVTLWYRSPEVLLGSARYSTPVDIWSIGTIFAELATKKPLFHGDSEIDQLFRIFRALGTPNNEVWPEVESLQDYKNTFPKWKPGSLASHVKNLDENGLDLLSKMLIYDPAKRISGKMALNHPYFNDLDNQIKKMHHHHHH
T2 sequence (P14635 other isoform, or with tags, fused parts or gaps, chain 2 of 2): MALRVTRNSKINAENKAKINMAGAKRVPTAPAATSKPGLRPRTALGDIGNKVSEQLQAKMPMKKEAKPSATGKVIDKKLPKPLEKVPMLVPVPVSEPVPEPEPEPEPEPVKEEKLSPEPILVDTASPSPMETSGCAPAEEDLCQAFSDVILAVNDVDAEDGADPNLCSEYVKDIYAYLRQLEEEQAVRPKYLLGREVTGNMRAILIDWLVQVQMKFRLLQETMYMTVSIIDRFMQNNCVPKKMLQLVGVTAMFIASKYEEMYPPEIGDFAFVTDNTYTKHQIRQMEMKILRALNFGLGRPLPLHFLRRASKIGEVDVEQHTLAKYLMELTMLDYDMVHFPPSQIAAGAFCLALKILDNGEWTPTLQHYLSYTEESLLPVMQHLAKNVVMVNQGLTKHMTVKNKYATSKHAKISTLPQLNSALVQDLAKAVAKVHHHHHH
CDK4/Cyclin D1 complex, sequence (P11802 other isoform, or with tags, fused parts or gaps, chain 1 of 2): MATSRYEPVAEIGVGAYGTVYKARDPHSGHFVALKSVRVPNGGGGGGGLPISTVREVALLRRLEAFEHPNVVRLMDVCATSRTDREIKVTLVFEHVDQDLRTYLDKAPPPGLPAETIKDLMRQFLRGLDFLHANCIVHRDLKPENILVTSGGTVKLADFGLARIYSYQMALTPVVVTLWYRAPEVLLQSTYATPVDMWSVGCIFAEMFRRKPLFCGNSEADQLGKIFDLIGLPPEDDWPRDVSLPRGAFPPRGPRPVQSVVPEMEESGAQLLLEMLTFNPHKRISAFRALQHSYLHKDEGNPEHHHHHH
CDK4/Cyclin D1 complex, sequence (P24385 whole entry, chain 2 of 2): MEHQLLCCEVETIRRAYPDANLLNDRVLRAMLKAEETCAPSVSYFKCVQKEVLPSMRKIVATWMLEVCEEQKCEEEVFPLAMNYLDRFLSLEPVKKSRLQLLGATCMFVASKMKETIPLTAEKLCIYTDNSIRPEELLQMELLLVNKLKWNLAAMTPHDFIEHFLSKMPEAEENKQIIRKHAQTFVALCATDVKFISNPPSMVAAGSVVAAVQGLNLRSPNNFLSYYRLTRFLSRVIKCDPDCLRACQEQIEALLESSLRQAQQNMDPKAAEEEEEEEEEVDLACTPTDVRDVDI
Cyclin D1, sequence (P24385 whole entry): as the sequence (P24385 whole entry, chain 2 of 2) above
T1 sequence (P11802 other isoform, or with tags, fused parts or gaps limits assumed): as the sequence (P11802 other isoform, or with tags, fused parts or gaps, chain 1 of 2) above
cyclin B, sequence (P14635 whole entry): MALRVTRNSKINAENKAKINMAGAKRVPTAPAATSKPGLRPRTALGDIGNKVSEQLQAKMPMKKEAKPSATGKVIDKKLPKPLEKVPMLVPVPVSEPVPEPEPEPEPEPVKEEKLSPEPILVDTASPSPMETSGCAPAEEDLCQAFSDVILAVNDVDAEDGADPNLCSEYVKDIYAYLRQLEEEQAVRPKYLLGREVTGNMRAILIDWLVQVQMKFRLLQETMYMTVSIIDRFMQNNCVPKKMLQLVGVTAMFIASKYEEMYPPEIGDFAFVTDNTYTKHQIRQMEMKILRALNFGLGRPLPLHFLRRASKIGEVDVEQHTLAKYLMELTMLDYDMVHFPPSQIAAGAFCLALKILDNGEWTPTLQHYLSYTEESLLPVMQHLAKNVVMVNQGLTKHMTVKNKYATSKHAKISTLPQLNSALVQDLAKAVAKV

Binder	binding result [1]	binding result [2]	binding result [3]	% Inhibition, cyclin E/CDK2 kinase [4] [%]	IC50, cyclin E/CDK2 kinase, GST-pRb [4] [µM]	% Inhibition, cyclin D1/CDK4 kinase [5] [%]	IC50, cyclin D1/CDK4 kinase, GST-pRb [5] [µM]	IC50, CDK1-Cyclin B phosphorylation of GST-Rb [6] [µM]	IC50, CDK1-Cyclin B phosphorylation of Histone 1 [6] [µM]	binding result [7]	binding result [8]
Biotin-[Ahx]DFYHSKRRLIF-NH2 (SMILES CC[C@H](C)[C@H](NC(=O)[C@H](CC(C)C)NC(=O)[C@H](CCCNC(=N)N)NC(=O)[C@H](CCCNC(=N)N)NC(=O)[C@H](CCCCN)NC(=O)[C@H](CO)NC(=O)[C@H](Cc1c[nH]cn1)NC(=O)[C@H](Cc1ccc(O)cc1)NC(=O)[C@H](Cc1ccccc1)NC(=O)[C@H](CC(=O)O)NC(=O)CCCCCNC(=O)CCCC[C@@H]1SC[C@@H]2NC(=O)N[C@@H]21)C(=O)N[C@@H](Cc1ccccc1)C(N)=O, immobilised on streptavidin) [biotinyl-Ahx-Asp-Phe-Tyr-His-Ser-Lys-Arg-Arg-Leu-Ile-Phe-NH]	binds	no binding	no binding	–	–	–	–	–	–	–	–
DFYHSKRRLIFS-NH2 [p21 (149-160) DFYHSKRRLIFS-NH2]	–	–	–	80	4.5	70	20	200	> 200	no binding	no binding
